Experimental data as given in patent publication US20260002151, “COMPOSITIONS AND METHODS FOR THE MODIFICATION AND REGULATION OF LIVER GENE EXPRESSION” (Mammoth Biosciences, Inc., published 2026).

T1: CasM.265466 D220R (unidentified, D220R)
T1 chain: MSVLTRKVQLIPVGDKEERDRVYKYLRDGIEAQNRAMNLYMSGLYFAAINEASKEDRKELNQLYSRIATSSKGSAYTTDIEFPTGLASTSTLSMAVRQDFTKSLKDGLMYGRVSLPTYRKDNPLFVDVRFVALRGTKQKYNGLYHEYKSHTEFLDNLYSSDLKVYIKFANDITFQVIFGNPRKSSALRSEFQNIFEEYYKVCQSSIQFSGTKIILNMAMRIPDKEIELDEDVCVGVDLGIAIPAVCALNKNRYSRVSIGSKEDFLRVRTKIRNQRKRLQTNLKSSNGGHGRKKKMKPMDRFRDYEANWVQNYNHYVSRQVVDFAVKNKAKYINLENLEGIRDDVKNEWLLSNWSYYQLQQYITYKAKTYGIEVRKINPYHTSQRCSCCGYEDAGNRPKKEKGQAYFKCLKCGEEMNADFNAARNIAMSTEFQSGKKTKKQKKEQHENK

B1: R16928 guide ; APOC3 target of R16928 (ssRNA ; dsDNA)
RNA: ACAGCUUAUUUGGAAGCUGAAAUGUGAGGUUUAUAACACUCACAAGAAUCCUGAAAAAGGAUGCCAAACGACCCUGAGGUCAGACCAAC
DNA 1: GACCCTGAGGTCAGACCAAC
DNA 2: GTTGGTCTGACCTCAGGGTC
B2: R16927 guide ; APOC3 target of R16927 (ssRNA ; dsDNA)
RNA: ACAGCUUAUUUGGAAGCUGAAAUGUGAGGUUUAUAACACUCACAAGAAUCCUGAAAAAGGAUGCCAAACAGUUCUGGGAUUUGGACCCU
DNA 1: AGTTCTGGGATTTGGACCCT
DNA 2: AGGGTCCAAATCCCAGAACT
B3: R16929 guide ; APOC3 target of R16929 (ssRNA ; dsDNA)
RNA: ACAGCUUAUUUGGAAGCUGAAAUGUGAGGUUUAUAACACUCACAAGAAUCCUGAAAAAGGAUGCCAAACACCUCAGGGUCCAAAUCCCA
DNA 1: ACCTCAGGGTCCAAATCCCA
DNA 2: TGGGATTTGGACCCTGAGGT

Target: T1, CasM.265466 D220R
Experiment: cell_activity; AAV8 in hAPOC3 mice, vehicle 936; PAM NNTN
From the text: Samples were collected from mice at 2 and 4 weeks.
Levels of human APOC3 protein in liver were quantified by ELISA. CasM.265466 variant D220R and multiple APOC3 guide RNAs tested reduced human ApoC3 protein in liver at 2 weeks and 4 weeks. […] Liver and body weights were normal at 0, 2 and 4 weeks. At four weeks post injection ALT levels were reduced in mice that received CasM.265466 variant D220R or CasPhi.12 variant L26R when compared those of mice receiving vehicle only. […] The guide IDs shown in the legend from top to bottom correspond to the data points in the graphs from left to right.
With B1 the activity was 190 mg/dL serum triglycerides. Work on B2 yielded an activity of 145 mg/dL serum triglycerides. Binder B3 has an activity of 247 mg/dL serum triglycerides.
